Assay results reported in US20220409694A1, “POLYPEPTIDE, AND PREPARATION METHOD THEREFOR AND USE THEREOF” (SHANXI JINBO BIO-PHARMACEUTICAL CO., LTD., priority 2020, published 2022).

Experiments:
Experiment in all cases: cell-based or functional assay
[1] = biological target: Rs3367-CoV S protein (pcDNA3.1-Rs3367-CoV-S, on pseudovirus) (Rs3367-CoV (SARS-like virus from bats))
[2] = biological target: WIV1-CoV S protein (pcDNA3.1-WIV1-CoV-S, on pseudovirus) (WIV1-CoV (SARS-like virus from bats))
[3] = biological target: S protein of live 2019-nCoV (SARS-CoV-2) virus (2019-nCoV (SARS-CoV-2)) (UniProt P0DTC2)
[4] = biological target: 2019-nCoV S protein (2019-nCoV-S, as encoded in pAAV-IRES-EGFP-2019-nCoV-S / pcDNA3.1) (2019-nCoV (SARS-CoV-2)) (UniProt P0DTC2)
[5] = biological target: SARS-CoV S protein (pcDNA3.1-SARS-CoV-S, on pseudovirus) (SARS-CoV) (UniProt P59594)

| Substance | Inhibitory Activity, IC50 (pseudovirus infection of HuH7, luciferase) [1] | Inhibitory Activity, IC50 (pseudovirus infection of HuH7, luciferase) [2] | IC50, 2019-nCoV live virus (plaque reduction assay, VERO-E6) [3] | Inhibitory Activity, IC50 (pseudovirus infection of HuH7, luciferase) [4] | Inhibitory Activity, IC50 (pseudovirus infection of HuH7, luciferase) [5] |
| --- | --- | --- | --- | --- | --- |
| EK1-chol (peptide) | 30 nM | 40 nM | 36.5 nM | 20 nM | 10 nM |
| EK1-plam (peptide) | 130 nM | 100 nM | 436 nM | 360 nM | 170 nM |
